This assay addresses Rpc160-HTP (largest subunit of RNAPIII, C-terminally His6–TEV–Protein A tagged) (S. cerevisiae) (UniProt P04051). The assay is described as follows: affinity purification with mass spectrometry; Rpc160-HTP as bait; as a3 but lysate treated with RNase A (20 μg/ml, 20 min at 25°C); label-free quantitative MS.
Chain of UniProt P04051 (P04051 whole entry): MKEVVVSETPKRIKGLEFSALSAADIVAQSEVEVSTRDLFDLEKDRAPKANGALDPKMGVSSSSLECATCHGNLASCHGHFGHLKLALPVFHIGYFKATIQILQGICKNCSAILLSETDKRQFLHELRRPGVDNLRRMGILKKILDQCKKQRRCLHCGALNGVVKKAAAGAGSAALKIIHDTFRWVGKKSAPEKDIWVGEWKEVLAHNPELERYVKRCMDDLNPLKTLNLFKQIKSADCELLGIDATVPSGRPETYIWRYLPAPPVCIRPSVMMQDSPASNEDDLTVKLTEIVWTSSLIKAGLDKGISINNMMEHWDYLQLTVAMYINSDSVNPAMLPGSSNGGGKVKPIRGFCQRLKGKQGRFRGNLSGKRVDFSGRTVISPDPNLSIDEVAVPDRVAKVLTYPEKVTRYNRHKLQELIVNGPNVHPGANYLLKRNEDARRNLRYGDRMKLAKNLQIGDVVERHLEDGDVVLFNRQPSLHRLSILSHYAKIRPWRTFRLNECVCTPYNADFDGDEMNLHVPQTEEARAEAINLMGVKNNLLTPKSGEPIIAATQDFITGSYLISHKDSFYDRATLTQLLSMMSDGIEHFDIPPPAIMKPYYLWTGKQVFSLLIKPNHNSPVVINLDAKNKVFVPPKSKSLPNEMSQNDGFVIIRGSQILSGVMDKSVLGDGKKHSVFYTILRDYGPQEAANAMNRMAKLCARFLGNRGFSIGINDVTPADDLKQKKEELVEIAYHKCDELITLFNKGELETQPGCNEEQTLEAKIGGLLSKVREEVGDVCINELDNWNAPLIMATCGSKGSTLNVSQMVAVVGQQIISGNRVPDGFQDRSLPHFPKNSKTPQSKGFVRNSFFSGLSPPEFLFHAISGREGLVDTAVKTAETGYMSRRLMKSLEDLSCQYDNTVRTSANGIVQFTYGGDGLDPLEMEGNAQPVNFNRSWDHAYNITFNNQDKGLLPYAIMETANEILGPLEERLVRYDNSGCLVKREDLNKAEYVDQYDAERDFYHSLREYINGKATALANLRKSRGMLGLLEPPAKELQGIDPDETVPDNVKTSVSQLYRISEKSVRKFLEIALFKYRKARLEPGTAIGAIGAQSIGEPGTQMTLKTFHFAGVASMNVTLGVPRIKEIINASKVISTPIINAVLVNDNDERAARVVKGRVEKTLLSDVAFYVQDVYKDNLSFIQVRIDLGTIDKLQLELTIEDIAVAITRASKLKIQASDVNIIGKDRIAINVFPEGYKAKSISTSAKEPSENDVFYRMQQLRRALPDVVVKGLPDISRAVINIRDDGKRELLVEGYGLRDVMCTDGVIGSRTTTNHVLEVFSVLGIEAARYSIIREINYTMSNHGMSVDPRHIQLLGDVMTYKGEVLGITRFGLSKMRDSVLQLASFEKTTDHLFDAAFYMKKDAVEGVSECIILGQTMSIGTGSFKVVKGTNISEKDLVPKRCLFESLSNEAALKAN

Consider “Sen1 (untagged, in cells expressing Rpc160-HTP, SEN1 background) (from UniProt Q00416 1-2231) (natural protein)”, for which the fold decrease of RNAPIII-bound Sen1 with RNase A treatment against no treatment came out at 2 fold.

The record behind these values is PMC9278858.
